Numbering of substitutions follows the chain as printed. Blank lines part the entries; values can stand above or below the binder they belong to.
Columns and labels:
[1] = biological target: T1, recombinant human Angiopoietin-2 (human, UniProt O15123 19-496); test: competition ELISA, Ang-2 on coated Tie2/Fc
T1 construct: also called Ang-2; rhAng-2
T1 sequence: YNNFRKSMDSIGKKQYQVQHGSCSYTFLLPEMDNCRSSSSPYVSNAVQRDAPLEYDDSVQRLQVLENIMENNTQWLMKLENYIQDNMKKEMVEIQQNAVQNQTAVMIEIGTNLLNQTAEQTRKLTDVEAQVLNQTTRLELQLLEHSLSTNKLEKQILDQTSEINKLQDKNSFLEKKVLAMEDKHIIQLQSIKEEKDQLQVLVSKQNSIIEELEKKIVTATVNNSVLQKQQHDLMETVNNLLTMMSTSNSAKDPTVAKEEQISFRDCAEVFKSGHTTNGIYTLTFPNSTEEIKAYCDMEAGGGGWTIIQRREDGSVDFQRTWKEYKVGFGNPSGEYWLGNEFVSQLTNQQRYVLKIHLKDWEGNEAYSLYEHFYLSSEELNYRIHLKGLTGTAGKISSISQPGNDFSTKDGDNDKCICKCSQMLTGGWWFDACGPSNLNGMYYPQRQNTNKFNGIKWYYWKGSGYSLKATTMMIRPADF
Experimental: 96-well Nunc Immplates™ were coated with 100 μl of recombinant human Tie2/Fc fusion protein (R&D Systems, Inc., Cat. No. 313-TI-100) at 4 μg/ml by incubating overnight at 4° C. The plates were washed four times using Phosphate Buffer Saline (PBS) with a Skan™ Washer 300 station (SKATRON). The wells were blocked by 100 μl of ABX-blocking buffer (0.5% BSA, 0.1% Tween, 0.01% Thimerosal in PBS) for 1 hour.
The plates were incubated at room temperature for two hours before the unbound molecules were washed off. […] After washing twice, the bound Streptavidin was detected by HRP substrate (R&D Systems, Cat. No. DY998). The plates were incubated for 30 minutes before 450 stop solution (100 μl/well, BioFX, Cat #BSTP-0100-01) was added to terminate the reaction. The light absorbance at 450 nm was determined by a Spectramax Plus reader.
Each concentration of the mAb was tested in duplicate. The concentration-response relationship was found by curve fitting using Graphpad Prism™ graphic software (non-linear, Sigmnoid curve). The maximal inhibition (efficacy) and IC₅₀ (potency) were calculated by the software.

mouse Angiopoietin-2 [2] = biological target: T2, mouse Angiopoietin-2 (mouse, UniProt O35608 19-496); test: direct ELISA on plates coated with conditioned medium of HEK293F/mouse Ang-2 transfectants, detection with anti-human Fc-HRP
T2 construct: Secreted into the supernatant of HEK293F/293T cells transfected with the full-length open reading frame of 496 amino acids (GenBank BC027216); also called mAng-2; mouse Ang-2
T2 sequence: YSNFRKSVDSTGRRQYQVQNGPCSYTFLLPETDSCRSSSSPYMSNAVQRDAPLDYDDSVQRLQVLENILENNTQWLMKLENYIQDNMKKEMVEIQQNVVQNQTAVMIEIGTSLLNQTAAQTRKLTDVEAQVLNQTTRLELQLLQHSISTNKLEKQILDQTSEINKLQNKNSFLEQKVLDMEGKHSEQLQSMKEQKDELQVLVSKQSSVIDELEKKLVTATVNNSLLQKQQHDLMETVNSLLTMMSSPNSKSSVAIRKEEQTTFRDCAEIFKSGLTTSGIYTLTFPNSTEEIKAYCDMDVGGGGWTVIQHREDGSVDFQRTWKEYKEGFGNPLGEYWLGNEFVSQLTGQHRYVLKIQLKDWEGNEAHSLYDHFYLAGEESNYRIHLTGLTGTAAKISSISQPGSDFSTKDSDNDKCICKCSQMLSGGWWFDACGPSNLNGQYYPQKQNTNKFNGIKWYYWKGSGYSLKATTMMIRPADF
Experimental: The plates were incubated at 4° C. overnight, followed by washing four times using Phosphate Buffer Saline with a Skan Washer 300 station (SKATRON). The wells were blocked by 100 μl of ABX-block buffer (0.5% BSA, 0.1% Tween, 0.01% Thimerosal in PBS) for 1 hour. […] The mAbs and each of their dilutes were tested in duplicate. […] To set up the detecting chromagenic reaction, 100 μl of TMB substrate (TMB-microwell, BioFX, Cat. No. TMSK-1000-01) was added after washing the wells three times using PBS. The plates were incubated for 30 minutes before 650 stop solution (100 μl/well, BioFX, Cat. No. BSTP-0100-01) was added to terminate the reaction.

mouse Angiopoietin-2 [3] = biological target: T2, mouse Angiopoietin-2; test: competition ELISA: mAb titrated with mouse Ang-2 supernatant on plates coated with human Tie2/Fc; blocked partner: human Tie2/Fc
Experimental: (§1) For this purpose, an ELISA plate was coated with 4 μg/ml of hTie2/Fc (R&D Systems, Inc.) at 100 μl/well, and the wells were blocked as routine at 4° C. overnight.
(§2) Each concentration of the mAb was tested in triplicate. […] OD650 was determined 30 min after the HRP substrate was added.

[4] = biological target: T1, recombinant human Angiopoietin-2; test: competition ELISA: mAb titrated with recombinant human Ang-2 on plates coated with human Tie2/Fc; blocked partner: human Tie2/Fc
Experimental: as §1, §2

B2: mAb 3.3.2 (antibody, V domains shown)
VH: EVQLVESGGGLVQPGGSLRLSCAVSGFTFSSYWMSWVRQAPGKGLEWVANIKQDGSEKYYVDSVKGRFTISRDNAKNSLYLQMNSLRAEDTAVYYCARDQGIAVAGPFDYWGQGTLVTVSS
VL: EIVMTQSPATLSVSPGERATLSCRASQTVSSDLAWYQQKPGQAPRLLIYGASIRATGIPARFSGSGSGTEFTLTISSLQSEDFAVYSCQQYYNWWTFGQGTKVEIKR
notes: Variable regions only; hybridoma-derived fully human IgG kappa; also called 3.3.1; x3.3
Efficacy (ratio of bound Ang-2 with mAbs (30 µg/ml) versus without mAbs) [1]: 0.388

B4: mAb 3.31.2 (antibody, V domains shown)
VH: EVQLVESGGGLVQPGGSLRLSCAASGFTFSSYWMSWVRQAPGKGLEWVANIKQDGSDKYYVDSVKGRFTISRDNAKNSLYLRMNSLRAEDTAVFYCARDMGSGWFDYWGQGTLVTVSS
VL: B2 VL with I2V, T28S, S30G, D32N, I53T, S87C, Y92N, N93H
notes: Variable regions only; hybridoma-derived fully human IgG kappa; also called x3.31*
Efficacy (ratio of bound Ang-2 with mAbs (30 µg/ml) versus without mAbs) [1]: 0.375

B6: mAb 3.19.3 (antibody, V domains shown)
VH: QVQLVESGGGVVQPGRSLRLSCAASGFTFTNYGMHWGRQAPGKGLEWVAVISHDGNNKYYVDSVKGRFTISRDNSKNTLYLQMNSLRAEDTAVYYCAREGIDFWSGLNWFDPWGQGTLVTVSS
VL: EIVLTQSPGTLSLSPGERATLSCRASQSITGSYLAWYQQKPGQAPRLLICGASSWATGIPDRFSGSGSGTDFTLTISRLEPEDFAVYYCQQYSSSPITFGQGTRLEIKR
notes: Variable regions only; hybridoma-derived fully human IgG kappa; also called x3.19
Efficacy (ratio of bound Ang-2 with mAbs (30 µg/ml) versus without mAbs) [1]: 0.395 | EC50 (read off the curve) (mouse Angiopoietin-2 [2]): ~1 µg/mL | IC50 (read off the curve) (mouse Angiopoietin-2 [3]): ~2 µg/mL | IC50 (read off the curve) [4]: ~0.7 µg/mL

Continued, values first:

Efficacy (ratio of bound Ang-2 with mAbs (30 µg/ml) versus without mAbs) [1]: 0.389
B1: mAb 5.28.1 (antibody, V domains shown)
VH: EVQLVESGGIVVQPGGSLRLSCAASGFTFDDYTMHWVRQTPGKGLEWVSLISWDGGSTYYADSVKGRFTISRDNSKNSLYLQMNSLRTEDTALYYCAKDIDIAVAGTGFDHWGQGTLVTVSS
VL: EIVMTQSPATLSVSPGERATLSCRASQSVTSNLAWYQQKPGQAPRLLIYGALIRATGIPARFSGSGSGTEFTLTISSLQSEDFAVYYCQQYNNWPFTFGPGTKVDIKR
notes: Variable regions only; hybridoma-derived fully human IgG kappa; also called x5.28

Efficacy (ratio of bound Ang-2 with mAbs (30 µg/ml) versus without mAbs) [1]: 0.403
B3: mAb 5.88.3 (antibody, V domains shown)
VH: EVQMVESGGGLVQPGGSLRLSCAASGFTLRSYWMSWVRQAPGKGLEWVANIKEDGSEKYHVDSVKGRFTISRDNAENSLFLQMSSLRAEDTAVYYCARDMEASAGLFDYWGQGTLVTVSS
VL: B2 VL with T20I, T28S, V29I, D32N, I53T, S87Y, Y92N, N93Y
notes: Variable regions only; hybridoma-derived fully human IgG kappa; also called x5.88*

Efficacy (ratio of bound Ang-2 with mAbs (30 µg/ml) versus without mAbs) [1]: 0.364
B5: mAb 5.101.1 (antibody, V domains shown)
VH: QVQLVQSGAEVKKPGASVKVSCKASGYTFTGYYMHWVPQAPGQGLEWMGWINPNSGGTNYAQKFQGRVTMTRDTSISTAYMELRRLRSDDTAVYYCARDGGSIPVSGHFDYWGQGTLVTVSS
VL: B2 VL with T28S, V29L, S30I, D32N, Y49F, I53T, S87Y, Q89H, Y92N
notes: Variable regions only; hybridoma-derived fully human IgG kappa; also called x5.101

Efficacy (ratio of bound Ang-2 with mAbs (30 µg/ml) versus without mAbs) [1]: 0.232
B7: mAb 5.103.1 (antibody, V domains shown)
VH: QVQLVQSGAEVKKPGASVKVSCKASGYTFTGYYLYWVPQAPGQGLEWMGWISPNSGGTNYAQKFQGRVTMTRDTSISTAYMELSRLRSDDTAVYYCARDQVIAVAGPFDYWAQGTLVTVSS
VL: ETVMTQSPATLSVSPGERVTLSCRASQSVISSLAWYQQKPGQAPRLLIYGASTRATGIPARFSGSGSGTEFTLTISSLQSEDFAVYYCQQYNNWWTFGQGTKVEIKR
notes: Variable regions only; hybridoma-derived fully human IgG kappa; also called x5.103*

Efficacy (ratio of bound Ang-2 with mAbs (30 µg/ml) versus without mAbs) [1]: 0.384
B8: mAb 5.86.1 (antibody, V domains shown)
VH: B7 VH with Y33H, L34M, P38R, M48L, S52N, A97V, V101G, V104A, A112C
VL: DIRMTQSPSSLSASVGDRVTITCRASQRISTYLNWYQQKPGKAPKFLIYAASSLQSGVPSRFSGSGSGTDFTLTISSLQPEDFATYYCQQSYTTPFTFGPGTKVDIKR
notes: Variable regions only; hybridoma-derived fully human IgG kappa; also called x5.86
